Test results from the supplement of paper PMC11246515.
± gives the standard deviation of the averaged measurements.

Assay: total protein half-life in vivo (active degradation + dilution); higher = more stable protein
[1] = E. coli NCM3722 delta-clpP, growth: N-lim chemostat, doubling time 6 h
[2] = E. coli NCM3722 delta-hslV, growth: N-lim chemostat, doubling time 6 h
[3] = E. coli NCM3722 delta-smpB, growth: N-lim chemostat, doubling time 6 h
[4] = wild type E. coli NCM3722, growth: C-lim chemostat, doubling time 3 h
[5] = wild type E. coli NCM3722, growth: C-lim chemostat, doubling time 6 h
[6] = wild type E. coli NCM3722, growth: C-lim chemostat, doubling time 12 h
[7] = wild type E. coli NCM3722, growth: P-lim chemostat, doubling time 12 h
[8] = E. coli NCM3722 delta-clpP delta-lon delta-hslV, growth: N-lim chemostat, doubling time 6 h
[9] = wild type E. coli NCM3722, growth: N-lim chemostat, doubling time 6 h
[10] = wild type E. coli NCM3722, growth: N-lim chemostat, doubling time 12 h
[11] = wild type E. coli NCM3722, growth: P-lim chemostat, doubling time 6 h

Sequence	total protein half-life in vivo [1]	total protein half-life in vivo [2]	total protein half-life in vivo [3]	total protein half-life in vivo [4]	total protein half-life in vivo [5]	total protein half-life in vivo [6]	total protein half-life in vivo [7]	total protein half-life in vivo [8]	total protein half-life in vivo [9]	total protein half-life in vivo [10]	total protein half-life in vivo [11]	total protein half-life in vivo (E. coli NCM3722 delta-lon, growth: N-lim chemostat, doubling time 6 h)
MNTDTFMCSSDEKQTRSPLSLYSEYQRMEIEFRAPHIMPTSHWHGQVEVNVPFDGDVEYLINNEKVNINQGHITLFWACTPHQLTDTGTCQSMAIFNLPMHLFLSWPLDKDLINHVTHGMVIKSLATQQLSPFEVRRWQQELNSPNEQIRQLAIDEIGLMLKRFSLSGWEPILVNKTSRTHKNSVSRHAQFYVSQMLGFIAENYDQALTINDVAEHVKLNANYAMGIFQRVMQLTMKQYITAMRINHVRALLSDTDKSILDIALTAGFRSSSRFYSTFGKYVGMSPQQYRKLSQQRRQTFPG [P0ACH8]	2.09 ± 0.21 h	2.5 h	1.89 h	2.14 ± 0.34 h	3.43 ± 0.17 h	4.03 ± 0.28 h	4.99 ± 1.6 h	–	–	–	–	–
MNTFSQVWVFSDTPSRLPELMNGAQALANQINTFVLNDADGAQAIQLGANHVWKLNGKPDDRMIEDYAGVMADTIRQHGADGLVLLPNTRRGKLLAAKLGYRLKAAVSNDASTVSVQDGKATVKHMVYGGLAIGEERIATPYAVLTISSGTFDAAQPDASRTGETHTVEWQAPAVAITRTATQARQSNSVDLDKARLVVSVGRGIGSKENIALAEQLCKAIGAELACSRPVAENEKWMEHERYVGISNLMLKPELYLAVGISGQIQHMVGANASQTIFAINKDKNAPIFQYADYGIVGDAVKILPALTAALAR	–	–	–	2.87 ± 0.035 h	5.9 h	8.89 ± 0.4 h	–	–	–	–	–	–
MNTLLLLAALSSQITFNTTQQGDVYTIIPEVTLTQSCLCRVQILSLREGSSGQSQTKQEKTLSLPANQPIALTKLSLNISPDDRVKIVVTVSDGQSLHLSQQWPPSSEKS	3.33 h	–	3.31 ± 0.35 h	2.3 h	–	5.97 ± 1.4 h	7.71 ± 0.17 h	4.26 ± 0.3 h	4.1 h	6.87 ± 0.16 h	4.19 h	–
MNTLPEHSCDVLIIGSGAAGLSLALRLADQHQVIVLSKGPVTEGSTFYAQGGIAAVFDETDSIDSHVEDTLIAGAGICDRHAVEFVASNARSCVQWLIDQGVLFDTHIQPNGEESYHLTREGGHSHRRILHAADATGREVETTLVSKALNHPNIRVLERSNAVDLIVSDKIGLPGTRRVVGAWVWNRNKETVETCHAKAVVLATGGASKVYQYTTNPDISSGDGIAMAWRAGCRVANLEFNQFHPTALYHPQARNFLLTEALRGEGAYLKRPDGTRFMPDFDERGELAPRDIVARAIDHEMKRLGADCMFLDISHKPADFIRQHFPMIYEKLLGLGIDLTQEPVPIVPAAHYTCGGVMVDDHGRTDVEGLYAIGEVSYTGLHGANRMASNSLLECLVYGWSAAEDITRRMPYAHDISTLPPWDESRVENPDERVVIQHNWHELRLFMWDYVGIVRTTKRLERALRRITMLQQEIDEYYAHFRVSNNLLELRNLVQVAELIVRCAMMRKESRGLHFTLDYPELLTHSGPSILSPGNHYINR	2.44 ± 0.11 h	2.28 ± 0.26 h	2.39 ± 0.22 h	2.68 ± 0.063 h	4.41 ± 0.59 h	8.41 ± 0.56 h	8.21 ± 0.71 h	4 ± 0.14 h	2.58 ± 0.22 h	3.51 ± 0.061 h	4.69 ± 0.27 h	4.14 ± 1.7 h
